In patent US20140079722A1, “EXTRACELLULAR TARGETED DRUG CONJUGATES” (CENTROSE, LLC, priority 2011, published 2014):

What was measured:
[1] = Pharmacokinetics and serum stability, antibody and drug specific ELISA; assay type: in vivo, Balb/c mice; settings: for serum half-life of the antibody portion / serum half-life of the steroid drug portion: Balb/c mice; for serum half-life of the antibody portion: EDC drug loading of 3; for serum half-life of the steroid drug portion: drug loading of 3; for serum stability half-life of the EDC: from ratio of slopes of serum decay of drug and antibody portions
Method: The steroid drug pharmacokinetics of M53-PEG24-CEN09-106 were measured using the drug specific ELISA described below. The comparison between the two ELISA results (antibody concentrations minus drug concentrations) was used to determine the rate of drug breakdown and thus examine M53-PEG24-CEN09-106 stability.
Serum was isolated from blood samples acquired by retro-orbital blood collection at 1, 2, 4, 8, 16, 26, and 40 days post-injection. […] Plasma concentrations of the steroid drug in M53-PEG24-CEN09-106 were measured as follows. Antigen coated ELISA plates were washed (×3) with PBS pH 7, blocked 30 min with PBS pH 7 containing 1% NFDM (PBS+NFDM), and then washed (×3) with PBS, pH 7. Diluted serum samples and standard curves of M53-PEG24-CEN09-106 were prepared in the above blocking buffer and applied to coated wells, incubated 30 min at RT, and the wells were washed (×3) with PBS, pH 7. Biotinylated 25C2E3 (a monoclonal IgG1 antibody specific for the steroid portion of PEG24-CEN09-106 and conjugated to biotin [Thermo Scientific, PN 21911]) was diluted to 100 ng/mL in PBS+NFDM and added (100 uL) to each well, incubated 30 min at RT, and the wells washed (×3) with PBS, pH 7. PNPP at 1 mg/mL in 1M DEA with 50 mM MgCl2, pH 9.8 was added (100 uL per well), and the absorbance at 405 nm was determined using a Wallac Victor^2 Model 1420-041 assay plate reader (Perkin Elmer, Gaithersburg, Md.) every 5 minutes for a total of 6 reads.
For both ELISAs, absorbance values from known standards were plotted as absorbance over time, generating a linear slope for each concentration. The slopes generated were then plotted against the respective concentrations of the standards, creating a second linear plot. The absorbance values for the unknown serum samples were plotted over time, establishing a slope for unknown sample. The linear estimate from the slope versus concentration plot was then used to extrapolate concentrations for each unknown sample based on their slope.
To determine serum stability of the intact EDC (drug release from the antibody over time) in these samples, the ratio of the slopes of serum decay of the drug portion to the serum decay of the antibody portion were calculated.

[2] = Single-dose tolerated dose (MTD), tail vein; assay type: in vivo, BALB/c mice
Method: EDC M53-PEG24-CEN09-106 preparations with drug loading of 2, 5 or 9 drugs per antibody were administered to BALB/c mice (Harlan Laboratories, n=1) in a single dose of 25, 50, 100 and 200 mg/kg via the tail vein to determine single-dose MTDs. Mice were monitored daily for 24 days, and both weight and clinical observations were recorded (weight measured at least twice a week and evaluation for overt signs of toxicity conducted at least twice a day).

[3] = Pharmacokinetics with varying drug loading (antigen binding ELISA); assay type: in vivo; settings: SCID beige mice
Method: Serum was isolated from blood samples taken by retro-orbital blood collection at 1 hour, and 1, 2, 3, 6, and 15 days post-injection. Blood was collected into heparin coated tubes followed by centrifugation (5,000×g, 5 minutes) to isolate plasma.
Antigen capture plates that were prepared by coating wells of 96 well clear bottom ELISA plates with CENP018 (SEQ ID NO: 17) conjugated to BSA at 400 ng BSA-peptide conjugate per well in 100 uL of 200 mM carbonate buffer, pH 9.6 overnight at 4° C. Antigen coated ELISA plates were washed (×3) with PBS pH 7, blocked 30 min with PBS pH 7 containing 1% NFDM (PBS+NFDM), and then washed (×3) with PBS, pH 7. […] Goat anti-mouse IgG alkaline phosphatase (cat. number: A1418, Sigma-Aldrich, St. Louis, Mo.) was diluted 1:15,000 in PBS+NFDM and added (100 uL) to each well, incubated 30 min at RT, and the wells washed (×3) with PBS, pH 7. PNPP at 1 mg/mL in 1M DEA with 50 mM MgCl2, pH 9.8 was added (100 uL per well), and the absorbance at 405 nm was determined using a Wallac Victor^2 Model 1420-041 assay plate reader (Perkin Elmer, Gaithersburg, Md.) every 5 minutes for a total of 6 reads. Absorbance values from known antibody concentration standards were used to determine the concentration of antibody in the serum samples.

Panc-1 xenografts = test: Panc-1 subcutaneous xenograft model (tumor fragments); assay type: in vivo, female HRLN nu/nu mice; settings: drug loading of 7; 1, 5, 15 mg/kg iv Q3Dx7 or Q7Dx3
Method: In another study, the Panc-1 subcutaneous xenograft model was used to evaluate antitumor activity of M53-PEG24-CEN09-106 with a drug loading of 7 drugs per antibody. Subcutaneous Panc-1 xenografts were initiated in female HRLN nu/nu mice by implanting 1 mm^3 PANC-1 tumor fragments were implanted subcutaneously into the right flank, tumor growth was monitored and mice bearing tumors of 80-120 mm^3 were selected for the study. Tumor volume was measured for each group 2× per week using calibrated vernier calipers plotted against day of first dose to produce the graph shown in FIG. 7. Among the treatment groups, no toxic effects were observed (toxicity determined as >10% weight loss during study period).

B1: M53-PEG24-CEN09-106: Class 1 EDC: antibody M53 conjugated to linker-ready agent PEG24-CEN09-106 (scillarenin, 4-amino-xyloside, PEG24) (conjugate)
heavy: EVQLVESGGGLVQPKGTLKLSCAASGFSFNTHAMNWVRQAPGKSLEWVARTMSKSNNYATYYADSVKDRFIIRADDSQSMLYLQMNNLKTEDTAMYYCVRDDPKRGMDYWGQGTSVTVSSAKTTPPSVYPLAPGSAAQTNSMVTLGCLVKGYFPEPVTVTWNSGSLSSGVHTFPAVLQSDLYTLSSSVTVPSSTWPSETVTCNVAHPASSTKVDKKIE
light: GIVMSQSPSSLAVSVGEKVTMSCKPSQSLLYSRNQKIYLAWYQQKPGQSPKLLIYWASTRESGVPDRFTGSGSGTDFTLIISSVRAEDLAVYYCQQYYNYPLTFGAGTKLELKRADAAPTVSIFPPSSEQLTSGGASVVCFLNNFYPKDINVKWKIDGSERQNGVLNSWTDQDSKDSTYSMSSTLTLTKDEYERHNSYTCEATHKTSTSPIVKSFNR
- serum half-life of the antibody portion ([1]; 1 mg/kg tail vein): 11.9 days
- serum half-life of the steroid drug portion ([1]; 1 mg/kg tail vein): 11 days
- serum stability half-life of the EDC ([1]; 1 mg/kg): 45 days
- serum half-life of the antibody portion ([1]; 10 mg/kg tail vein): 9.2 days
- serum half-life of the steroid drug portion ([1]; 10 mg/kg tail vein): 8 days
- serum stability half-life of the EDC ([1]; 10 mg/kg): 39 days
- clinical observations ([2]; drug loading of 2, 200 mg/kg): limb weakness at day 1 but recovered by day 3
- loss in body weight ([2]; drug loading of 2, 200 mg/kg): 25%
- MTD ([2]; drug loading of 2, single dose tail vein, BALB/c mice): > 100 mg/kg
- clinical observations ([2]; drug loading of 5, 100 mg/kg): slight limpness and closed front limbs but recovered by day 3
- weight loss ([2]; drug loading of 5, 100 mg/kg): 27%
- clinical observations ([2]; drug loading of 5, 200 mg/kg): limpness and closed front limbs and weakness at days 1 and 2
- clinical observations ([2]; drug loading of 5, 25 and 50 mg/kg): no signs of toxicity or weight loss
- clinical observations ([2]; drug loading of 9, 25 mg/kg): no signs of toxicity or weight loss
- clinical observations ([2]; drug loading of 9, 50 mg/kg): slight limpness on day 2 but recovered by day 3
- weight loss ([2]; drug loading of 9, 50 mg/kg, by day 5): 30%
- clinical observations ([2]; drug loading of 9, 100 and 200 mg/kg): limpness, closed front limbs and weakness by day 1 which continued through day 2
- serum half-life of detectable antibody ([3]; drug loading of 2, 1 mg/kg tail vein): approximately 7 days
- serum half-life of detectable antibody ([3]; drug loading of 5, 1 mg/kg tail vein): ~4 days
- serum half-life of detectable antibody ([3]; drug loading of 9, 1 mg/kg tail vein): ~2 days
- tumor response compared to vehicle group (Panc-1 xenografts): tumor reduction in a dose dependent manner
